Test results published in PMC4129656.

Target: biotinylated E2F-1 peptide symmetrically methylated at R111 and R113
Assay: BLI

Kd: 12 µM
Substance: p100-TSN Tudor domain (biolayer interferometry) (from UniProt Q7KZF4 729-787) (domain or fragment)
